According to US20160340704A1, “METHOD OF MAKING A BENZYLISOQUINOLINE ALKALOID (BIA) METABOLITE, ENZYMES THEREFORE” (VALORBEC SOCIÉTÉ EN COMMANDITE, priority 2014, published 2016):

Assays:
[1] = system: acetylcholinesterase; details: cited from earlier work
[2] = Microsomal cytochrome P450 enzyme assay of PsCFS and PsSPSΔN incubated with (S)-scoulerine; type: biochemical, Papaver somniferum; details: microsomes with PsCPR; 125 μM (S)-scoulerine, 500 μM NADPH
Experimental: The pESC-CPR vector encoding opium poppy cytochrome P450 reductase (PsCPR) fused to a c-Myc tag was used for the heterologous expression of plant proteins in S. cerevisiae^25. The amplicon was inserted into NotI and SpeI restriction sites of pESC-CPR in-frame with a FLAG-tag sequence yielding pESC-CPR/CFS. […]
Analysis of enzyme assays was performed using an Agilent™ 1200 liquid chromatography system equipped with a 6410 triple-quadrupole mass spectrometer (Agilent Technologies; Santa Clara, Calif.). […] Scoulerine, cheilanthifoline, and stylopine were detected in multiple reaction monitoring (MRM) mode using a collision energy of 25 eV and monitored transitions of m/z 328→178, 326→178 and 324→176, respectively.
Constructs for the heterologous expression of PsCFS and PsSPS in S. cerevisiae were assembled in a vector harbouring PsCPR (Table 1 above). […] No conversion of scoulerine was detected in the negative control. […]

[3] = system: scoulerine; experiment: CYP719s in GC1316 (integrated PsCPR and PsCFS) supplemented with scoulerine; type: cell-based, Saccharomyces cerevisiae
Source text: (§1) Plasmids harboring CYP719s were transformed into either GC1333 containing an integrated PsCPR (FIG. 10A) or GC1316 containing an integrated PsCPR and an integrated PsCFS (FIG. 10B). Strain GC1333, harboring PsCPR integrated into the chromosome, was transformed with pBOT plasmids, with GFP removed, harboring individual CYP719s (CYP719 EX41-105). (See Tables 7-8 below presenting the nature and activity of these CYP719s).
Plasmids harboring individual CYP719s were transformed into strain GC1316, which harbored PsCPR and PsCFS integrated into the genome. Strains were supplemented with scoulerine and after 16 hours total BIAs were extracted and the molar ratio was compared (FIG. 10B). The four possible BIAs that could be extracted were scoulerine, the single Ring A product nandinine, the single Ring B product cheilanthifoline, and the double Ring A, Ring B product stylopine.

[4] = system: nandinine; experiment: CYP719 Ring B closure of nandinine to stylopine in GC1333; type: cell-based, Saccharomyces cerevisiae; details: nandinine generated in vivo from scoulerine, in TE
Experimental: FIG. 11A-B: showing conversion of (S)-cheilanthifoline (FIG. 11A) or (S)-nandinine (FIG. 11B) to (S)-stylopine by purchased CYP719s. Plasmids harboring CYP719s were transformed into GC1333 containing an integrated PsCPR. Strains were incubated with the appropriate BIA overnight, and then total BIAs were extracted and total molar ratios were compared. PsSPSΔN was used as a control.
The 10 CYP719s with 95% activity on Ring A of scoulerine and the 10 CYP719s with activity on Ring B of scoulerine were tested for activity on cheilanthifoline and nandinine, respectively, in order to generate a branched stylopine synthesis pathway. […] CYP719s PsCFS and EX101, capable of converting >98% of scoulerine to cheilanthifoline and nandinine, respectively, were incubated with scoulerine. After 16 h, cells were pelleted and the supernatant fraction was collected. The supernatant was then applied to fresh yeast strains in order to supplement them with either TE containing nandinine or cheilanthifoline as necessary.

[5] = system: scoulerine; experiment: CYP719 substrate affinity test on scoulerine in GC1333 (integrated PsCPR): Ring A / Ring B closure; type: cell-based, Saccharomyces cerevisiae; details: single CYP719 with PsCPR, 16 hours
Experimental: To broadly identify CYP719 activities on BIAs, a substrate affinity test was performed with the protoberberine BIA scoulerine. CYP719s have been described to form methylenedioxy bridges on BIAs from an alcohol group and a methyl group on adjacent carbons. Two different rings can be made on scoulerine, which can be called “Ring A” and “Ring B”, with the BIA products being called “nandinine” and “cheilanthifoline”, respectively (see FIG. 19). CYP719-catalyzed formation of both Ring A and Ring B of scoulerine (“Ring A-closing activity” and “Ring B-closing activity”) has been identified and published. Certain CYP719 enzymes included in the affinity tests have published ring A and Ring B activities.
as §1
The resulting CYP719-harboring strains (strains SF41-105) were supplemented with scoulerine. After 16 hours, BIAs were extracted and the molar ratio of scoulerine to downstream BIAs was calculated (FIG. 10A).

[6] = system: (S)-scoulerine; experiment: TNMT N-methylation test: GCY1101 versus GCY1127 fed (S)-scoulerine; type: cell-based, Saccharomyces cerevisiae
Experimental: When cells of the Block 2-Block 3 double integrant were incubated with (S)-scoulerine, compounds with exact masses of 342.1710 m/z and 340.1548 m/z were detected in addition to expected sanguinarine pathway intermediates. These exact masses, and their CIDs, correspond to N-methylscoulerine and N-methylcheilanthifoline, respectively^36. […] To determine whether TNMT was responsible for the N-methylation of cheilanthifoline and scoulerine, the Block 2 integrant strain harbouring CPR on a plasmid (strain GCY1101) was compared with the Block 2 integrant strain harbouring both CPR and TNMT on a plasmid (strain GCY1127).
Because the applicants lacked standards to quantify the N-methylated products and since the three compounds are similar in structure, they assumed equal ionization efficiency and estimated their relative proportions by peak area: when strain GCY1127 is fed (S)-scoulerine, the expected product N-methylstylopine is 33%, while N-methylscoulerine is 7% and N-methylcheilanthifoline is 60% (FIG. 8B).

In the case of `COc1cc2c(cc1O)[C@@H]1Cc3ccc(OC)c(O)c3C[N@+]1(C)CC2` [N-methylscoulerine], the described activity [1] is listed as “acetylcholinesterase inhibitor”.

B1: EX84: Papaver somniferum cheilanthifoline synthase, ADB89213.1, SEQ ID NO: 363 (protein, listed as Papaver somniferum)
chain: MEVTFWLITCGVVVAFALAKLLFGKKSSMSTMEWPSGPKTLPIIGNLHQLGGEAFHVCLANLAKVYGGVFTIWVGSWRPFIVISDVDKAWEVLVNKSSDYSARDMPDITKIISANWKNISHGDSGPFWHNLRKGLQGVALTPFNVASQYHLQERDMQNLIKSMKKKASQKNGILKPLDYVKEETVRLLSRLIFSQEFVDEDFVVGMHQALDELVSISGYASLADAFKFCENLPSHKKTIRAVHAIKIRFDNLIRPHIVSNPPTNTYLHFLLSQDFSEDVIISAILEVYDLGVDSTASTTVWALTFLVREQKIQEKLYREINNVTGGKRPVKVEDLNKLPYLQAVMKETMRMKPIAPMAIPHKASKDTSLMGKKINKGTVVMVNLYAIHHNPAVFPEPYKFMPERFLKDANSDGSLGDIKKMESSLLAFSAGMRICAGMELGKLQLAFGLASLVNEFKWDCVAEGKLPDLSEEHCFILLMKNPLEAKITPRIH
With B1 the “conversion of (S)-scoulerine by microsomal proteins (LC-MS products)” value [2] was “converted to cheilanthifoline”, the “conversion of scoulerine to cheilanthifoline” value ([3]; PsCFS alone in GC1316) was 100% and the activity on nandinine ([3]; inferred from residual nandinine in GC1316 strains) was “little to no activity on nandinine”. The “conversion of nandinine to stylopine” value [4] was 12%.

B2: EX46: CYP719 from Corydalis cheilanthifolia, SEQ ID NO: 325 (protein, listed as Corydalis cheilanthifolia)
chain: MVNAVAEILTEKPWLLPATLLAVIAIAKFFLGKSSTMKWPIGPKTLPIIGNMHQLGGTDLQVVLANLAKTYGTIMTIWVGSWRPMIVLSDIEKAWEVLVNKSSDYSGRAMPEITEIISAKGKTISTSDSGPHWSNLRKGLQNVALSPHNIAAQSRFQESDITKMIKTLKQEAASNNGIVQPLDHLKKSTVRLISRLIFGQDFDDDEYVEAMHLAVEELIRVSGYARLAEAFYYAKYLPSHKRAVSEVWEANRRVKRIVKPRLSANPPPNCYLHFLSSQDYSEEMIIFAIFEAYLLGVDSTSSTTAWALGFLIREPKVQERLYQELKNCAGENGLIKVEDINKLPYLQAVLKETMRMKPIAPLAIPHKAVRETSLAGNKVEPGTRVMVNLYAIHHNPKVWIDPHKFKPERFLQGEENGGGNLKLMEQSLLPFSAGMRTCAGMELGKLQFGFSLANLVNAFQWDCAKKGMFPDMSDLLGFVLLMKTPLQAKIVPRGSPSINGY
For B2, the “conversion of scoulerine to the Ring A product nandinine (Ring A closure)” value [5] was 66%.

B3: EX61: CYP719 from Eschscholzia californica, Q50LH3.1, SEQ ID NO: 340 (protein, listed as Eschscholzia californica)
chain: MEEMKILMMNNPWILTATATTLLISIFLFFTRKSSKMVWPAGPKTLPIIGNMHLLGGTALQVVLHNLAKVHGSVMTIWIGSWRPVIVVSDIERAWEVLVNKSSDYSARDMPDITKIISADWKTISTSDSGPHWTNLRKGLQNVALSPHNLAAQFQFQEKDMTKMIQTLQEEARNNNGIVKPLDHMKKATLRLISRLVFGQDFNNDKYVDDMHLAIEELIRVSGYARLAEAFYYAKYLPSHKKAVREVEEAQRRVQNLVSPFLSLNPPTNTYLHFLRSQKYDDEVIIFAIFEAYLLGVDSTSLTTAWALAFLIRESNVQEKLYQELESFASKMDRKILKVEDINKLQYLQAVIKETMRMKPIAPLAIPHKACRDTSLMGKKIDKGTRVMVNIYALHHNKNVFNDPFKFMPERFMKVDSQDANGKAMEQSLLPFSAGMRICAGMELGKLQFSFALANLAYAFKWSCVADGVLPDMSDQLGFVLLMKTPLEARINRRN
For B3, the “conversion of scoulerine to the Ring A product nandinine (Ring A closure)” value [5] was 90%.

B4: TNMT: Papaver somniferum tetrahydroprotoberberine cis-N-methyltransferase, SEQ ID NO: 58 (protein, listed as Papaver somniferum)
chain: MGSIDEVKKESAGETLGRLLKGEIKDEELKKLIKFQFEKRLQWGYKSSHQEQLSFNLDFIKSLKKMEMSGEIETMNKETYELPSEFLEAVFGKTVKQSMCYFTHESATIDEAEEAAHELYCERAQIKDGQTVLDIGCGQGGLVLYIAQKYKNCHVTGLTNSKAQVNYLLKQAEKLGLTNVDAILADVTQYESDKTYDRLLMIEAIEHMKNLQLFMKKLSTWMTKESLLFVDHVCHKTFAHFFEAVDEDDWYSGFIFPPGCATILAANSLLYFQDDVSVVDHWVVNGMHMARSVDIWRKALDKNMEAAKEILLPGLGGSHETVNGVVTHIRTFCMGGYEQFSMNNGDEWMVAQLLFKKK
In the case of B4, the “substrate acceptance for N-methylation” value [6] is reported as “accepts both scoulerine and cheilanthifoline as substrates”.
